Results taken from the RNAGym collection of RNA variant scans (doi:10.1093/nar/gkz1192).

B1: CPEB3 Ribozyme (parent)
chain: UAACAGGGGGCCACAGCAGAAGCGUUCACGUCGCAGCCCCUGUCAGAUUCUGGUGAAUCUGCGAAUUCUGCUGUAUAUCUC

Variants of: B1
Assay: self-cleavage, relative activity (ratio to wild type); higher = more cleavage; in vitro, sequencing
Summary of the method: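 For each CPEB3 ribozyme variant, relative activity is its cleaved/total read fraction divided by the unmutated ribozyme's. Barcoded error-prone PCR libraries were transcribed by T7 RNA polymerase (5 hours, 37°C) and held in DNase I for 15 min before an EDTA stop, with cleavage occurring throughout. Template-switching reverse transcription and Illumina sequencing were used to read the RNAs. A 5-read minimum applied, and results are the mean of three batches.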
G16A U25A showed a self-cleavage of 0.36.
In the case of G16A U25C, the self-cleavage is reported as 0.18.
For A15U U49C, the self-cleavage was 0.15.
With A15U U49G the self-cleavage was 0.36.
With A15U U49A the self-cleavage was 0.64.
A15U G55A gave a self-cleavage of 0.46.
A15U G55U showed a self-cleavage of 0.68.
In the case of A15U C27U, the self-cleavage is reported as 0.19.
In the case of A15U U41A, the self-cleavage is reported as 0.17.
For A15U U41C, the self-cleavage was 0.92.
For A15U U41G, the self-cleavage was 0.26.
Work on A15U G33A yielded a self-cleavage of 0.17.
Work on A15U G33U yielded a self-cleavage of 0.52.
In the case of G16A A21G, the self-cleavage is reported as 0.16.
G16A A21U gave a self-cleavage of 0.2.
In the case of G16A A28G, the self-cleavage is reported as 0.25.
With G16A A28U the self-cleavage was 0.21.
For G16A G30A, the self-cleavage was 0.06.
Variant G16A G30C has a self-cleavage of 0.05.
In the case of A15U U69G, the self-cleavage is reported as 0.34.
Work on A15U U69C yielded a self-cleavage of 0.35.
A15U U69A showed a self-cleavage of 0.25.
Variant G16A G73C has a self-cleavage of 0.86.
Variant A15U U26G has a self-cleavage of 0.44.
With A15U U26C the self-cleavage was 0.25.
A15U U26A showed a self-cleavage of 0.54.
A15U C23A gave a self-cleavage of 0.18.
A15U C23U gave a self-cleavage of 0.23.
For A15U U48G, the self-cleavage was 0.35.
A15U U48A showed a self-cleavage of 0.17.
A15U U48C showed a self-cleavage of 0.33.
A15U G52A showed a self-cleavage of 1.05.
Work on A15U C44G yielded a self-cleavage of 0.31.
Variant A15U C44A has a self-cleavage of 0.32.
A15U C44U showed a self-cleavage of 0.22.
Variant A15U U54A has a self-cleavage of 0.8.
For A15U U54G, the self-cleavage was 0.59.
In the case of A15U U54C, the self-cleavage is reported as 0.77.
For G16A G33U, the self-cleavage was 0.18.
Work on A15U A77U yielded a self-cleavage of 0.71.
A15U U72A showed a self-cleavage of 1.09.
In the case of A15U U72G, the self-cleavage is reported as 0.91.
Work on A15U U72C yielded a self-cleavage of 0.87.
G16A U43C gave a self-cleavage of 0.39.
Work on G16A U43A yielded a self-cleavage of 0.74.
Variant G16A U72A has a self-cleavage of 0.36.
With G16A U72C the self-cleavage was 0.79.
For G16A U72G, the self-cleavage was 0.16.
G16A A64U showed a self-cleavage of 0.19.
For G16A A64G, the self-cleavage was 0.45.
With G16A U69A the self-cleavage was 0.19.
With G16A U69G the self-cleavage was 0.2.
In the case of G16A U69C, the self-cleavage is reported as 0.16.
For G16A U31A, the self-cleavage was 0.19.
In the case of G16A U31G, the self-cleavage is reported as 0.47.
For A15U C59G, the self-cleavage was 0.1.
Work on G16A A20U yielded a self-cleavage of 0.16.
G16A A20G showed a self-cleavage of 0.24.
In the case of A15U C37U, the self-cleavage is reported as 0.29.
A15U C39A showed a self-cleavage of 0.24.
Variant A15U C39U has a self-cleavage of 0.65.
Variant G16A U58A has a self-cleavage of 0.12.
G16A U41G gave a self-cleavage of 0.12.
In the case of G16A U41C, the self-cleavage is reported as 0.49.
G16A U41A gave a self-cleavage of 0.1.
In the case of A15U C62A, the self-cleavage is reported as 0.14.
For A15U C62U, the self-cleavage was 0.18.
Variant G16A A35G has a self-cleavage of 1.02.
With G16A C27A the self-cleavage was 0.17.
G16A U60C gave a self-cleavage of 0.19.
Work on A15U U51A yielded a self-cleavage of 0.82.
A15U U51G gave a self-cleavage of 0.89.
With A15U U51C the self-cleavage was 0.54.
In the case of A15U C68U, the self-cleavage is reported as 0.26.
A15U G22C showed a self-cleavage of 0.06.
For A15U G30C, the self-cleavage was 0.15.
In the case of A15U G30U, the self-cleavage is reported as 0.15.
In the case of G16A A77G, the self-cleavage is reported as 0.54.
For A15U C32U, the self-cleavage was 0.4.
Variant A15U C32A has a self-cleavage of 0.24.
With A15U C32G the self-cleavage was 0.06.
A15U U31C showed a self-cleavage of 0.35.
In the case of A15U U31A, the self-cleavage is reported as 0.45.
In the case of A15U U31G, the self-cleavage is reported as 0.39.
For G16A C79A, the self-cleavage was 0.81.
Work on A15U U43A yielded a self-cleavage of 0.88.
Variant A15U U43C has a self-cleavage of 0.41.
For A15U U43G, the self-cleavage was 0.25.
In the case of A15U G16A, the self-cleavage is reported as 0.57.
With A15U G16U the self-cleavage was 0.3.
Work on A15U C71U yielded a self-cleavage of 0.33.
In the case of A15U C29U, the self-cleavage is reported as 0.5.
For A15U G42A, the self-cleavage was 0.61.
G16A C23A gave a self-cleavage of 0.08.
With A15U C17G the self-cleavage was 0.36.
For A15U C17U, the self-cleavage was 0.21.
In the case of A15U C17A, the self-cleavage is reported as 0.6.
In the case of A15U G36C, the self-cleavage is reported as 0.13.
For A15U G36U, the self-cleavage was 0.08.
A15U U67C gave a self-cleavage of 0.22.
In the case of A15U U67G, the self-cleavage is reported as 0.11.
Work on A15U U67A yielded a self-cleavage of 0.2.
A15U C38A showed a self-cleavage of 0.2.
A15U C38G gave a self-cleavage of 0.25.
In the case of A15U C38U, the self-cleavage is reported as 0.67.
Work on G16A A56G yielded a self-cleavage of 0.4.
For G16A A56U, the self-cleavage was 0.13.
G16A A47G gave a self-cleavage of 0.5.
With G16A U26C the self-cleavage was 0.13.
With G16A U26A the self-cleavage was 0.34.
A15U G61C showed a self-cleavage of 0.07.
A15U G61A gave a self-cleavage of 0.37.
In the case of A15U C81U, the self-cleavage is reported as 1.14.
A15U C81A gave a self-cleavage of 0.32.
A15U C79A gave a self-cleavage of 1.03.
For A15U C79U, the self-cleavage was 1.14.
With A15U C79G the self-cleavage was 1.08.
With A15U U78A the self-cleavage was 0.48.
A15U U78C gave a self-cleavage of 0.7.
G16A U67A gave a self-cleavage of 0.34.
Work on G16A U67C yielded a self-cleavage of 0.11.
In the case of G16A A57G, the self-cleavage is reported as 0.27.
G16A U49A showed a self-cleavage of 0.4.
With A15U G70A the self-cleavage was 0.32.
Variant A15U G70C has a self-cleavage of 0.17.
Work on A15U G24C yielded a self-cleavage of 0.08.
For A15U U60A, the self-cleavage was 0.32.
A15U U60C gave a self-cleavage of 0.31.
In the case of A15U U58C, the self-cleavage is reported as 0.26.
Work on A15U U58A yielded a self-cleavage of 0.16.
Variant A15U U76C has a self-cleavage of 0.88.
A15U U76A gave a self-cleavage of 1.17.
For G16A C37U, the self-cleavage was 0.24.
A15U U25G gave a self-cleavage of 0.46.
In the case of A15U U25A, the self-cleavage is reported as 0.2.
A15U U25C gave a self-cleavage of 0.25.
A15U U66C gave a self-cleavage of 0.23.
For A15U U66A, the self-cleavage was 0.34.
G16A A45G gave a self-cleavage of 0.45.
Work on G16A A45C yielded a self-cleavage of 0.14.
G16A U54C gave a self-cleavage of 0.66.
For A15U C34U, the self-cleavage was 0.29.
Variant A15U C34A has a self-cleavage of 0.37.
In the case of A15U C34G, the self-cleavage is reported as 0.27.
Work on A15U C50G yielded a self-cleavage of 0.26.
With G16A U74A the self-cleavage was 1.21.
Variant G16A U74C has a self-cleavage of 0.77.
Variant A15U G73U has a self-cleavage of 1.17.
With A15U G73A the self-cleavage was 1.24.
With A15U U74G the self-cleavage was 0.97.
Variant A15U U74C has a self-cleavage of 0.97.
A15U U74A gave a self-cleavage of 1.02.
In the case of A15U U80A, the self-cleavage is reported as 1.01.
For A15U U80C, the self-cleavage was 1.03.
For A15U G19C, the self-cleavage was 0.17.
For A15U G19U, the self-cleavage was 0.23.
With G16A the self-cleavage was 0.34.
G16A C39U gave a self-cleavage of 0.15.
For G16A C39A, the self-cleavage was 0.33.
Variant G16A U78A has a self-cleavage of 0.52.
Work on A15U G63A yielded a self-cleavage of 0.67.
For A15U G63U, the self-cleavage was 0.93.
Variant A15U C40G has a self-cleavage of 0.18.
In the case of A15U C40U, the self-cleavage is reported as 0.55.
Work on A15U C40A yielded a self-cleavage of 0.31.
For G16A U51C, the self-cleavage was 0.18.
G16A U51A showed a self-cleavage of 0.57.
